The values that follow come from patent US20180368743, “GRAPHENE-BASED NANOSENSOR FOR IDENTIFYING TARGET ANALYTES” (THE TRUSTEES OF COLUMBIA UNIVERSITY IN THE CITY OF NEW NEW …, published 2018).

What all share (details): G4
One series deals with Insulin (Homo sapiens, UniProt P01308;P01308 P01308:25-54,P01308:90-110). Nature of the series: graphene FET, PBS pH 7.4, Hill-Langmuir fit of Dirac voltage shift. The method, then:
The nanosensor insulin measuring capabilities were subsequently tested in PBS buffer. Insulin solutions of increasing concentrations from 100 pM to […] were sequentially introduced to the PDMS chamber of the nanosensor. The binding of insulin to the IGA3 aptamer was allowed to reach equilibrium before the replenishment of sample solutions.
The binding of insulin and aptamer was allowed to reach equilibrium for 10 min before the replenishment of higher concentration insulin solution. Thus, the dipping time of graphene in solutions was increased with the ongoing experiment. The slight decrease in the minimum of Ids (Ids,min,) in the transfer characteristic curve, observed in FIG. 99A was considered as a result of the increase in the ionic strength caused by the evaporation of PBS buffer (150 mM NaCl) with increasing dipping time.
Further, the equilibrium dissociation constant (KD) for the IGA3 aptamer and insulin with different VDirac at corresponding insulin concentrations was evaluated using the aptamer-functionalized GFETs. […] The change in VDirac, denoted as ΔVDirac, is plotted as a function of insulin concentrations with error bars obtained from three different devices (FIG. 99B).

Another series concerns the target T1, Somatostatin (Homo sapiens, UniProt P61278 P61278:103-116).
T1 chain: AGCKNFFWKTFTSC
Nature of the series: graphene FET current change <1.3% at up to 1 uM vs 8.5% for insulin; normalized response <0.192. The method, then:
(§1) To examine the specificity of the nanosensor to insulin over other related analogues that might interfere with the detection of insulin, glucagon and somatostatin, which were secreted by the pancreatic islet alpha and delta cells, respectively, were evaluated as negative control analytes. This is because glucagon [molecular weight (MW): 3.5 kD, PI: 6.2], promoting […] by the liver and together with somatostatin (MW: 1.63 kD, PI: 5.6) regulating the secretion of insulin, share similar physical properties with insulin, which can affect the sensing performance. The functionalized graphene nanosensor was first exposed to somatostatin solutions prior to the introduction of insulin. The change in Ids, denoted as ΔIds, was recorded throughout the experiment and compared as the response of the aptameric nanosensor to the given solutions. To minimize errors caused by device-to-device nonuniformity, the time-resolved selective response as the ratio of ΔIds to ΔIds,max (the maximum value of ΔIds) was calculated:
where Ids,PBS is the Ids measured in fresh PBS buffer. […] On the contrary, the calculated ΔIds/ΔIds,max value increased and reached 1.0 at […] insulin with stepwise increments in the insulin concentration (FIG. 101A).
Additionally, a similar real-time monitoring control experiment was conducted with glucagon (FIG. 107). […]

A further series deals with Glucagon (Homo sapiens, UniProt P01275 P01275:53-81). Nature of the series: graphene FET current change <1.3% at up to 1 uM vs 8.5% for insulin. On the procedure:
as §1
Additionally, a similar real-time monitoring control experiment was conducted with glucagon (FIG. 107). […] Here, ΔIds,S(C)=Ids,S(C)−Ids,PBS, where Ids,S(C) is the Ids measured at the binding equilibrium for given solutions (insulin/glucagon/somatostatin) at representative tested concentrations.

Chain of Insulin (P01308 25-54, chain 1 of 2): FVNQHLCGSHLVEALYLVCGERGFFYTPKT
Chain of Insulin (P01308 90-110, chain 2 of 2): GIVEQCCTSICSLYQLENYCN
Chain of Glucagon (P01275 53-81, one chain of several): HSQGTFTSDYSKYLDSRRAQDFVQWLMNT

For GGTGGTGGGGGGGGTTGGTAGGGTGTCTTC (ssDNA, 5'-NH2 (coupled to PASE on graphene)) [IGA3 insulin aptamer], the dissociation constant Kd in the series with Insulin is 35 nM. Besides, the binding result with Somatostatin and with Glucagon was “no binding” each time.

One may read the Kd as the free concentration of one partner at which half of the binding sites on the other are occupied at equilibrium, for simple one-to-one binding.
